# In patent publication US20220380739A1 (Boehringer Ingelheim, published 2022):
# Where two headings read alike, the source gives them in different places.
# Key:
# [1] = biological target: 6H-GSG-VDVAD-BIWA4; assay: cell-based or functional assay
# [2] = biological target: 6H-GSG-VDVAD-BIWA4; assay: cell-based or functional assay; remark: listed apart in the source
# Chain of 6H-GSG-VDVAD-BIWA4 (scFv, as listed by the source): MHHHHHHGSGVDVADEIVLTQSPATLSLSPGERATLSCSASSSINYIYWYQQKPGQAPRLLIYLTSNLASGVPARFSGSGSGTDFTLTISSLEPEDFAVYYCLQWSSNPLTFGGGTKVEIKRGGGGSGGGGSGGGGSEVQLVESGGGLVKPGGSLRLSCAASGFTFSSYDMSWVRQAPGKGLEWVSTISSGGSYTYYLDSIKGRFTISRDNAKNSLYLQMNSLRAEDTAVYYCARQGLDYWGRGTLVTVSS
Binder,KM [1],KM [2]
T7AC_6H_mS9ProE (enzyme) MLEDPERNKERKEAELQAQTAEQHHHHHHGKNHAGSPGCEESAAGKEKLPKMRLPTRSDMICGYACLKGTAAMRNTKRGSWYIEALAQVFSERACDMHVADMLVKVNALIKDREGYAPGTEFHRCKVMSEYCSTLCRHLYLFPGHPPTGSGPVCLQVKPCTPEFYQTHFQLAYRLQSRPRGLALVLSNVHFTDEKELEFRSGGDVDHSTLVTLFKLLGYDVHVLCDQTAQEMQEKLQNFAQLPAHRGTDSCIVALLSHGVEGAIYGVDGKLLQLQEVFQLFDNANCPSLQNKPKMFFIQACRGEETERGVDQQD,0.00016,0.00016
T7AC_6H_mS9ProD (enzyme) MLEDPERNKERKEAELQAQTAEQHHHHHHGKNHAGSPGCEESAAGKEKLPKMRLPTRSDMICGYACLKGTAAMRNTKRGSWYIEALAQVFSERACDMHVADMLVKVNALIKDREGYAPGTEFHRCKVMSEYCSTLCRHLYLFPGHPPTGSGPVCLQVKPCTPEFYQTHFQLAYRLQSRPRGLALVLSNVHFTDEKELEFRSGGDVDHSTLVTLFKLLGYDVHVLCDQTAQEMQEKLQNFAQLPAHRGTDSCIVALLSHGVEGAIYGVDGKLLQLQEVFQLFDNANCPSLQNKPKMFFIQACRGEETDRGVDQQD,0.00023,0.00023
